For this test, the target named is canine Met (canine) (UniProt Q75ZY9). The test can be described thus: cell-based or functional assay.

“recombinant human HGF (from UniProt P14210 32-728) (ligand)”: the phosphorylation of canine Met in OSA cell lines was found to be 50 ng/mL.

These data come from patent US20060057619A1.
